Data on 5 molecules can be found in paper PMC5869772, “Quantitative profiling of BATF family proteins/JUNB/IRF hetero-trimers using Spec-seq” (BMC Molecular Biology, 2018).

In series [1] the test system is BATF2 (bZIP);JUNB (human;human). The experiment in a line: Spec-seq (EMSA). Conditions: 100 nM BATFx-JUNB, 150 nM IRF, 1 uM dsDNA library, 50 mM K acetate, 20 mM Tris-acetate, 10 mM Mg acetate, 100 ug/ml BSA, pH 7.9 (25 C), 10% glycerol, 30 min on …. A general note: In EMSA bound probe runs differently from free probe, usually more slowly.
The next series relates to BATF3;JUNB (human;human). The experiment in a line: Spec-seq (EMSA). To be noted: no IRF; 100 nM BATFx-JUNB, 150 nM IRF, 1 uM dsDNA library; 50 mM K acetate, 20 mM Tris-acetate, 10 mM Mg acetate, 100 ug/ml BSA, pH 7.9 (25 C), 10% glycerol; 30 min on ….
Another series deals with BATF;JUNB (human;human). The experiment in a line: Spec-seq (EMSA). Conditions: no IRF; 100 nM BATFx-JUNB, 150 nM IRF, 1 uM dsDNA library; 50 mM K acetate, 20 mM Tris-acetate, 10 mM Mg acetate, 100 ug/ml BSA, pH 7.9 (25 C), 10% glycerol; 30 min on ….
For series [2], the system named is BATF2 (bZIP);JUNB;IRF4 (human;human;human). The experiment in a line: Spec-seq (EMSA). To be noted: reference; 100 nM BATFx-JUNB, 150 nM IRF, 1 uM dsDNA library; 50 mM K acetate, 20 mM Tris-acetate, 10 mM Mg acetate, 100 ug/ml BSA, pH 7.9 (25 C), 10% glycerol; 30 min on ….
For series [3], the system named is BATF2 (bZIP);JUNB;IRF8 (human;human;mouse). The experiment in a line: Spec-seq (EMSA). To be noted: reference; 100 nM BATFx-JUNB, 150 nM IRF, 1 uM dsDNA library; 50 mM K acetate, 20 mM Tris-acetate, 10 mM Mg acetate, 100 ug/ml BSA, pH 7.9 (25 C), 10% glycerol; 30 min on ….
For series [4], the system named is BATF3;JUNB;IRF4 (human;human;human). The experiment in a line: Spec-seq (EMSA). Conditions: reference; 100 nM BATFx-JUNB, 150 nM IRF, 1 uM dsDNA library; 50 mM K acetate, 20 mM Tris-acetate, 10 mM Mg acetate, 100 ug/ml BSA, pH 7.9 (25 C), 10% glycerol; 30 min on ….
Series [5] deals with BATF3;JUNB;IRF8 (human;human;mouse). The experiment in a line: Spec-seq (EMSA). Conditions: reference; 100 nM BATFx-JUNB, 150 nM IRF, 1 uM dsDNA library; 50 mM K acetate, 20 mM Tris-acetate, 10 mM Mg acetate, 100 ug/ml BSA, pH 7.9 (25 C), 10% glycerol; 30 min on ….
Series [6] deals with BATF;JUNB;IRF4 (human;human;human). The experiment in a line: Spec-seq (EMSA). Conditions: reference; 100 nM BATFx-JUNB, 150 nM IRF, 1 uM dsDNA library; 50 mM K acetate, 20 mM Tris-acetate, 10 mM Mg acetate, 100 ug/ml BSA, pH 7.9 (25 C), 10% glycerol; 30 min on ….
Series [7] has as its system BATF;JUNB;IRF8 (human;human;mouse). The experiment in a line: Spec-seq (EMSA). Conditions: reference; 100 nM BATFx-JUNB, 150 nM IRF, 1 uM dsDNA library; 50 mM K acetate, 20 mM Tris-acetate, 10 mM Mg acetate, 100 ug/ml BSA, pH 7.9 (25 C), 10% glycerol; 30 min on ….
In a further series the target is T1, IRF4 (full length human) (human, UniProt Q15306 1-451).
T1 construct: IRF4 (interferon regulatory factor 4), human, full length; also called IRFx; source: E. coli BL21(DE3), purified (Strep-Tactin Superflow), strep-tag cleaved off by thrombin; not shown: Strep-tag, N-terminal, cleaved
T1 sequence (looked up): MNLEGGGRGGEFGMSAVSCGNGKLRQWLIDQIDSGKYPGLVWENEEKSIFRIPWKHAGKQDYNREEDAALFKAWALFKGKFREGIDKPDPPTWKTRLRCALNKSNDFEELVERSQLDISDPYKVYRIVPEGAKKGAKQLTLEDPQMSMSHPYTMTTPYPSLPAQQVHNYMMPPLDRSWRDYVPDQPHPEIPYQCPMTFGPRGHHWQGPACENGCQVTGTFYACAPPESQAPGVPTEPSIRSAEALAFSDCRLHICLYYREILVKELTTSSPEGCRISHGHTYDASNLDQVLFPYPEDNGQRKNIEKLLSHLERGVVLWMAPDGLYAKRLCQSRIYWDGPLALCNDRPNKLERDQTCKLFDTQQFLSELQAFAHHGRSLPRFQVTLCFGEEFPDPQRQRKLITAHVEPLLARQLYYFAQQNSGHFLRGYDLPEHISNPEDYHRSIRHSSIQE
The experiment in a line: native gel or EMSA; complex formed on a dsDNA library: 100 nM BATFx-JUNB heterodimer, 150 nM IRF protein, 1 uM dsDNA library in 1x NEB Cutsmart buffer (pH 7.9) with 10% glycerol, 30 min on ice; native 9% PAGE in Tris/Glycine at 4 °C. To be noted: both partners purified.

In a further series the target is T2, IRF8 (full length mouse) (mouse, UniProt P23611 1-424).
T2 construct: IRF8 (interferon regulatory factor 8), mouse, full length; also called IRFx; source: E. coli BL21(DE3), purified (Strep-Tactin Superflow), strep-tag cleaved off by thrombin; not shown: Strep-tag, N-terminal, cleaved
T2 sequence (looked up): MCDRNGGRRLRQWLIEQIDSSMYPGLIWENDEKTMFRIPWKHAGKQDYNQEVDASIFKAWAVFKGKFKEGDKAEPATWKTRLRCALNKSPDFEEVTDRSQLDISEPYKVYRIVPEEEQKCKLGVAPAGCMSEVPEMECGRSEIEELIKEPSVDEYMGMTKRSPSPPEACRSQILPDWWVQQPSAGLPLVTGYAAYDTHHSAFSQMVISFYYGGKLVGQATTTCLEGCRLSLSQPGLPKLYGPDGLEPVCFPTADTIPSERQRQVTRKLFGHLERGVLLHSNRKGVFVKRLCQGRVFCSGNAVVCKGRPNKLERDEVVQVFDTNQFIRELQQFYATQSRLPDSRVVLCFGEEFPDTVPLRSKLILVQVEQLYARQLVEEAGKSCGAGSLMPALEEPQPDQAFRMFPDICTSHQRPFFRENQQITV
The series is described as above. Conditions: both partners purified.

With CRE (TGACGTCA), the binding signal (kT (-ln bound/unbound)) in [1] (no IRF) is -1.32; in the series with BATF3;JUNB (human;human), -1.75; in the series with BATF;JUNB (human;human) it was -1.05.
Turning to TRE-0sp (TGAGTCAT), the binding signal (kT (-ln bound/unbound)) in series [1] was -0.903; in the series on BATF;JUNB (human;human) it was -1.05. Moreover, the binding signal (kT vs TRE-0sp) in series [2], in series [3], in [4], in series [5], in series [6] and in [7] was 0 throughout.
On to TRE-1sp (ATGAGTCA), for which the binding signal (kT (-ln bound/unbound)) is -1.01 in series [1] and -1.25 in the series on BATF;JUNB (human;human).

B1: BATF–JUNB hetero-dimer (complex, human)
chain 1: MPHSSDSSDSSFSRSPPPGKQDSSDDVRRVQRREKNRIAAQKSRQRQTQKADTLHLESEDLEKQNAALRKEIKQLTEELKYFTSVLNSHEPLCSVLAASTPSPPEVVYSAHAFHQPHVSSPRFQP
chain 2: KMNHVTPPNVSLGATGGPPAGPGGVYAGPEPPPVYTNLSSYSPASASSGGAGAAVGTGSSYPTTTISYLPHAPPFAGGHPAQLGLGRGASTFKEEPQTVPEARSRDATPPVSPINMEDQERIKVERKRLRNRLAATKCRKRKLERIARLEDKVKTLKAENAGLSSTAGLLREQVAQLKQKVMTHVSNGCQLLLGVKGHAF
notes: BATF, human, full length; Heterodimer formed by co-expression before purification; also called BATFx–JUNB; source: SHuffle T7 Express E. coli, co-expressed, purified (Ni-NTA agarose), mCherry cleaved off with ProTEV Plus; not shown: mCherry, N-terminal, cleaved
Regarding B1, the binding result with IRF4 (full length human) and with IRF8 (full length mouse) was “binds” each time.

B2: BATF2–JUNB hetero-dimer (complex, human)
chain 1: MHLCGGNGLLTQTDPKEQQRQLKKQKNRAAAQRSRQKHTDKADALHQQHESLEKDNLALRKEIQSLQAELAWWSRTLHVHERLCPMDCASCSAPGLLGCWDQAEGLLGPGPQGQHGCREQLELFQTPGSCYPAQPLSPGPQP
chain 2: KMNHVTPPNVSLGATGGPPAGPGGVYAGPEPPPVYTNLSSYSPASASSGGAGAAVGTGSSYPTTTISYLPHAPPFAGGHPAQLGLGRGASTFKEEPQTVPEARSRDATPPVSPINMEDQERIKVERKRLRNRLAATKCRKRKLERIARLEDKVKTLKAENAGLSSTAGLLREQVAQLKQKVMTHVSNGCQLLLGVKGHAF
notes: Heterodimer formed by co-expression before purification; also called BATFx–JUNB; source: SHuffle T7 Express E. coli, co-expressed, purified (Ni-NTA agarose), mCherry cleaved off with ProTEV Plus; not shown: mCherry, N-terminal, cleaved
Take B2: the binding result in the series with IRF4 (full length human) and with IRF8 (full length mouse) was “binds” each time.
